From US20110318347A1

Legend:
human CXCR4 (human) [1] = molecular target: human CXCR4 (human)
CCR5 = CCR5 (UniProt P51681); assay: cell-based or functional assay
human CXCR4 (human) [2] = assay: cell-based or functional assay
human CXCR4 (human) [3] = assay: competition with [125I]-238D2 on HEK293T-CXCR4 membranes
human CXCR4 (human) [4] = assay: competition with [125I]-238D4 on HEK293T-CXCR4 membranes
human CXCR4 (human) [5] = assay: competition with [125I]-CXCL12 on HEK293T-CXCR4 membranes
human CXCR4 (human) [6] = assay: competition vs [125I]-238D2 (3 nM), membranes of HEK293T cells expressing CXCR4
human CXCR4 (human) [7] = assay: competition vs [125I]-238D4 (3 nM), membranes of HEK293T cells expressing CXCR4
human CXCR4 (human) [8] = assay: competition vs [125I]-CXCL12 (40 pM), membranes of HEK293T cells expressing CXCR4
human CXCR4 (human) [9] = assay: periplasmic fraction (1:10), displacement of [125I]-CXCL12, HEK293T-CXCR4 membranes; - = 0-29%, + = 30-69%, ++ = 70-100%

Chain of CCR5 (P51681 whole entry): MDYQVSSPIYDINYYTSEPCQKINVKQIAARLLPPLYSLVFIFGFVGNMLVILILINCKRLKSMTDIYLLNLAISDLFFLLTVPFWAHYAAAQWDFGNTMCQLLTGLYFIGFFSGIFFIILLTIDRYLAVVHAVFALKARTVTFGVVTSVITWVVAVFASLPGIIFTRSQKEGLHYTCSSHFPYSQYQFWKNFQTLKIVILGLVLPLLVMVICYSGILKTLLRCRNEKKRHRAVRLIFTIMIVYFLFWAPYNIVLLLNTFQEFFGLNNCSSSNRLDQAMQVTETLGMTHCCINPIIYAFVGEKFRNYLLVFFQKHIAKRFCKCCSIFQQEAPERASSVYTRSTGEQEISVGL

B1: Nanobody 238D4 (VHH, from a related filing, part only)
VHH: EVQLMESGGGLVQAGGSLRLSCAASGRTFNNYAMGWFRRAPGKEREFVAAITRSGVRSGVSAIYGDSVKDRFTISRDNAKNTLYLQMNSLKPEDTAVYTCAASAIGSGALRRFEYDYSGQGTQVTVSS
- IC50 (read off the curve), migration of Jurkat cells towards 0.3 nM CXCL12 (human CXCR4 (human) [1]): 9 nM
- Anti-HIV-1 activity (in nM), PBMC/BaL (CCR5): > 100 nM
- Anti-HIV-1 activity (in nM), U87.CD4.CCR5/BaL (CCR5): > 500 nM
- IC50, HIV-1 BaL, PBMC donor 1 (CCR5): > 1 µg/mL
- IC50, HIV-1 BaL, PBMC donor 2 (CCR5): > 1 µg/mL
- IC90, HIV-1 BaL, PBMC donor 1 (CCR5): > 1 µg/mL
- IC90, HIV-1 BaL, PBMC donor 2 (CCR5): > 1 µg/mL
- nM IC50, HIV-1 BAL, PBMC donor 1 (CCR5): > 67 nM
- nM IC50, HIV-1 BAL, PBMC donor 2 (CCR5): > 67 nM
- Anti-HIV-1 activity (in nM), MT-4/HE (human CXCR4 (human) [2]): 82 nM
- Anti-HIV-1 activity (in nM), MT-4/NL4.3 (human CXCR4 (human) [2]): 40.3 nM
- Anti-HIV-1 activity (in nM), PBMC/HE (human CXCR4 (human) [2]): 13.6 nM
- Anti-HIV-1 activity (in nM), PBMC/NL4.3 (human CXCR4 (human) [2]): 13.7 nM
- Anti-HIV-1 activity (in nM), U87.CD4.CXCR4/NL4.3 (human CXCR4 (human) [2]): 107 nM
- CRE activation, HEK293T-CXCR4-CREbgal/0.01-100 nM CXCL12, Imax (%) (human CXCR4 (human) [2]): 90%
- CRE activation, HEK293T-CXCR4-CREbgal/0.01-100 nM CXCL12, pKi or pIC50 (pKB by the text) (human CXCR4 (human) [2]): 7.7
- Chemotaxis, Jurkat/0.3 nM CXCL12, Imax (%) (human CXCR4 (human) [2]): 101%
- Chemotaxis, Jurkat/0.3 nM CXCL12, pKi or pIC50 (human CXCR4 (human) [2]): 8.31
- IC50, HIV-1 NL4.3, MT-4 cells, exp. 1 (human CXCR4 (human) [2]): 0.833 µg/mL
- IC50, HIV-1 NL4.3, PBMC donor 1 (human CXCR4 (human) [2]): > 1 µg/mL
- IC50, HIV-1 NL4.3, PBMC donor 2 (human CXCR4 (human) [2]): 0.551 µg/mL
- IC50, HIV-1 UG270, PBMC donor 1 (human CXCR4 (human) [2]): > 1 µg/mL
- IC50, HIV-1 UG270, PBMC donor 2 (human CXCR4 (human) [2]): > 1 µg/mL
- IC90, HIV-1 NL4.3, MT-4 cells, exp. 1 (human CXCR4 (human) [2]): > 1 µg/mL
- IC90, HIV-1 NL4.3, PBMC donor 1 (human CXCR4 (human) [2]): > 1 µg/mL
- IC90, HIV-1 NL4.3, PBMC donor 2 (human CXCR4 (human) [2]): > 1 µg/mL
- IC90, HIV-1 UG270, PBMC donor 1 (human CXCR4 (human) [2]): > 1 µg/mL
- IC90, HIV-1 UG270, PBMC donor 2 (human CXCR4 (human) [2]): > 1 µg/mL
- IP accumulation, HEK293T-CXCR4-Gαqi5/30 nM CXCL12, Imax (%) (human CXCR4 (human) [2]): 90%
- IP accumulation, HEK293T-CXCR4-Gαqi5/30 nM CXCL12, pKi or pIC50 (human CXCR4 (human) [2]): 8.39
- nM IC50, HIV-1 NL4.3, PBMC donor 1 (human CXCR4 (human) [2]): > 67 nM
- nM IC50, HIV-1 NL4.3, PBMC donor 2 (human CXCR4 (human) [2]): 36.7 nM
- nM IC50, HIV-1 UG270, PBMC donor 1 (human CXCR4 (human) [2]): > 67 nM
- nM IC50, HIV-1 UG270, PBMC donor 2 (human CXCR4 (human) [2]): > 67 nM
- IC50 (read off the curve) (human CXCR4 (human) [3]): 3 nM
- IC50 (read off the curve) (human CXCR4 (human) [4]): 4 nM
- IC50 (read off the curve) (human CXCR4 (human) [5]): 10 nM
- Displacem. (%) (human CXCR4 (human) [6]): 101%
- pKi (human CXCR4 (human) [6]): 8.8
- Displacem. (%) (human CXCR4 (human) [7]): 103%
- pKi (human CXCR4 (human) [7]): 8.55
- Displacem. (%) (human CXCR4 (human) [8]): 99%
- pKi (human CXCR4 (human) [8]): 8.22
- percent inhibition of specific [125I]-CXCL12 binding (human CXCR4 (human) [9]): 70 to 100%
